Data taken from the supplement of paper PMC12764529.
± gives the half width of the 95% confidence interval.

Legend:
[1] = folding stability dG unfold from chymotrypsin proteolysis; higher = more stable
In short: (§1)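 Sequencing followed digestion of designed mini-proteins with trypsin and chymotrypsin, each at 11 concentrations in threefold dilutions together with a no-protease condition. The mini-proteins were under 80 residues, had no cysteine, sat in a PA-tagged cDNA display construct, and were kept only if AlphaFold2 dimer inter-PAE was above 15. From the counts, Bayesian fitting gave K50, and unfolding free energy was derived against a sequence-predicted unfolded-state K50 and a shared folded-state K50, per protease or combined.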

[2] = folding stability dG unfold from trypsin proteolysis; higher = more stable
In short: as §1

[3] = folding stability dG unfold (combined trypsin and chymotrypsin); higher = more stable
In short: as §1

Row | Sequence | folding stability dG unfold [1] | folding stability dG unfold [2] | folding stability dG unfold [3]
1 | SAGGSAGGSASTTVTYVEIKVTNPNPPGTPVAEYLIPLSEITEEMIEKLEKEGGLKVEVTVVLSAGGSAGGS [r12_398_JUSTAS] | 1.44 ± 0.033 kcal/mol | 1.2 ± 0.12 kcal/mol | 1.41 ± 0.058 kcal/mol
2 | SAGGMKTAVLTLEVPGLPKRLVLIAGESEEEYKKLAAEAEKPGYEFLGYTTLEELVERTGLPASLLLSAGGS [r16_438_JUSTAS] | 1.07 ± 0.28 kcal/mol | 0.916 ± 0.085 kcal/mol | 0.969 ± 0.19 kcal/mol
3 | SAGGSAGGSAGKPKTVEIEVTNEDGSKYKAKVVEVDEEKGYVLIKITNPDGSEQTILIKLSAGGSAGGSAGG [r11_742_TrROS_Hall] | 2.97 ± 0.033 kcal/mol | 1.81 ± 0.06 kcal/mol | 2.6 ± 0.1 kcal/mol
4 | SAGGSAGGSAPSKKVKFKVLAKNTKTGKYKEIDITAEVPVSNGKVVSIEELLKKFPDFELKPSAGGSAGGSA [r18_267_TrMRF] | 0.0845 ± 0.38 kcal/mol | 0.342 ± 0.11 kcal/mol | 0.172 ± 0.21 kcal/mol
5 | SKTIIIEVKEEKLEEIAEELAKKLEEETGYKIKKVEIILPDGTVVRIEVDAKTKKIKIEVYKLDKNGKLLSA [r9_173_TrROS_Hall] | 2.24 ± 0.096 kcal/mol | 1.15 ± 0.037 kcal/mol | 1.97 ± 0.1 kcal/mol
6 | SAGGSAGGSAGDDNKKKPKPKIEIQPVRMTMPFPENGLRIEIDIWVIKDGNIIFMIEWYPSAGGSAGGSAGG [r11_463_TrROS] | 3.72 ± 0.17 kcal/mol | 2.92 ± 0.12 kcal/mol | 3.3 ± 0.11 kcal/mol
7 | SAGGSAGGMIPVKTTETTTLPDGSTVVTESLTIIDPTSNTSTTTTLKTTIINTSTGTTIPPSSLSAGGSAGG [r6_866_JUSTAS] | 0.319 ± 0.073 kcal/mol | 1.38 ± 0.032 kcal/mol | 1 ± 0.079 kcal/mol
8 | SAGGSAGGSAGGAPAAVESVEPLKIGDKEYLRITFPDGTTVTLPSSTPLSPDGQKLKPVPSAGGSAGGSAGG [r7_931_JUSTAS] | 0.503 ± 0.031 kcal/mol | 0.65 ± 0.042 kcal/mol | 0.628 ± 0.033 kcal/mol
9 | SAGGNPDGKPDGGVSFVVNVAKTKPYIDPSTGKVYPVVEVKPVVIEVKKDEKLDLSELLKNTDYISVSSAGG [r13_753_TrMRF] | 0.142 ± 0.13 kcal/mol | -0.463 ± 0.14 kcal/mol | 0.0383 ± 0.12 kcal/mol
10 | SAMVLRLVVTVTGKIGDSLSTTTITREVSLEEYSEEELEALAEAVADAIRAANPEATVSLSILPEEELESAG [r14_723_JUSTAS] | 2.565 ± 0.02 kcal/mol | 2.47 ± 0.074 kcal/mol | 2.58 ± 0.097 kcal/mol
11 | SAGGSAVKIDPKTKVIEVKNPETGETYRISLPDVPPEDGVEVEVGDDKIIIKTPKGTKEIPIDKAKSAGGSA [r15_864_TrMRF] | 0.794 ± 0.18 kcal/mol | -0.000856 ± 0.16 kcal/mol | 0.529 ± 0.25 kcal/mol
12 | SAGGRTLEFNMKSNNPNMMENEISKLLRELGFPPGFDIEVNPERDPNGRYTYPITITVDNPELADKISAGGS [r8_85_TrROS] | -0.00324 ± 0.54 kcal/mol | 0.106 ± 0.43 kcal/mol | -0.0764 ± 0.42 kcal/mol
13 | SAGMVTYTVTVPYAPAGKRVRVTLFDEGKEIASFEGVENAPYNQTFTFTAPPFTIRIEYEDGSVDPLPASAG [r5_646_TrMRF] | 4.05 ± 0.058 kcal/mol | 3.32 ± 0.27 kcal/mol | 3.57 ± 0.23 kcal/mol
14 | SAGGTVTIFIPGMSLDQIKKFIKFFRDNPDRPVTIHMPNGYMIEIDPKGKIDNIKVRRMPPMPEDDQSAGGS [r16_248_TrROS] | 2.93 ± 0.046 kcal/mol | 1.52 ± 0.036 kcal/mol | 2.53 ± 0.12 kcal/mol
15 | SAGGSAGGKLPKNIEKIEFNKKTNIIKVKVKSLEDLKKLAEKLNFEIVSVEEKDGYIYIKIKKKSAGGSAGG [r6_380_TrROS_Hall] | 2.796 ± 0.027 kcal/mol | 1.86 ± 0.038 kcal/mol | 2.47 ± 0.081 kcal/mol
16 | SAAFKGKNGKTIKITAKVKPNELTPEQVKELALAAVKNIFPENEKVEVKVKVEKLPNGEVLVYVEVKAESAG [r14_389_TrMRF] | 0.342 ± 0.17 kcal/mol | 1.22 ± 0.038 kcal/mol | 0.905 ± 0.085 kcal/mol
17 | SAGGSASSYGIEIEFSEDPNSKTKKITITVTRPDGTVETVTITNPDITDEEAKKIGEELANEVANSSAGGSA [r15_526_JUSTAS] | 1.93 ± 0.02 kcal/mol | 2.19 ± 0.055 kcal/mol | 2.06 ± 0.059 kcal/mol
